Results taken from IntAct's records for PubMed 31515488.

B1: Zinc finger protein 473 (Homo sapiens), Q8WTR7 (parent)
chain: MAEEFVTLKDVGMDFTLGDWEQLGLEQGDTFWDTALDNCQDLFLLDPPRPNLTSHPDGSEDLEPLAGGSPEATSPDVTETKNSPLMEDFFEEGFSQEIIEMLSKDGFWNSNFGEACIEDTWLDSLLGDPESLLRSDIATNGESPTECKSHELKRGLSPVSTVSTGEDSMVHNVSEKTLTPAKSKEYRGEFFSYSDHSQQDSVQEGEKPYQCSECGKSFSGSYRLTQHWITHTREKPTVHQECEQGFDRNASLSVYPKTHTGYKFYVCNEYGTTFSQSTYLWHQKTHTGEKPCKSQDSDHPPSHDTQPGEHQKTHTDSKSYNCNECGKAFTRIFHLTRHQKIHTRKRYECSKCQATFNLRKHLIQHQKTHAAKTTSECQECGKIFRHSSLLIEHQALHAGEEPYKCNERGKSFRHNSTLKIHQRVHSGEKPYKCSECGKAFHRHTHLNEHRRIHTGYRPHKCQECVRSFSRPSHLMRHQAIHTAEKPYSCAECKETFSDNNRLVQHQKMHTVKTPYECQECGERFICGSTLKCHESVHAREKQGFFVSGKILDQNPEQKEKCFKCNKCEKTFSCSKYLTQHERIHTRGVKPFECDQCGKAFGQSTRLIHHQRIHSRVRLYKWGEQGKAISSASLIKLQSFHTKEHPFKCNECGKTFSHSAHLSKHQLIHAGENPFKCSKCDRVFTQRNYLVQHERTHARKKPLVCNECGKTFRQSSCLSKHQRIHSGEKPYVCDYCGKAFGLSAELVRHQRIHTGEKPYVCQECGKAFTQSSCLSIHRRVHTGEKPYRCGECGKAFAQKANLTQHQRIHTGEKPYSCNVCGKAFVLSAHLNQHLRVHTQETLYQCQRCQKAFRCHSSLSRHQRVHNKQQYCL
partner: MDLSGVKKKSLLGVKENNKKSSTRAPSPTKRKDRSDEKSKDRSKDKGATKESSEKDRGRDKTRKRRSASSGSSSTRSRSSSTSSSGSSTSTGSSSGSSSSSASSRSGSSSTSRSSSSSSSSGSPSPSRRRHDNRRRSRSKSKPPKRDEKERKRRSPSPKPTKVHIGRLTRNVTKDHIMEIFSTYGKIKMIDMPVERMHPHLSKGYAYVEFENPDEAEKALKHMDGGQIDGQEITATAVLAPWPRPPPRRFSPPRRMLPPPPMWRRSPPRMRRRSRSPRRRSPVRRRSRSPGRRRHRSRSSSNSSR
B2: Grancalcin (Homo sapiens), P28676 (parent)
chain: MAYPGYGGGFGNFSIQVPGMQMGQPVPETGPAILLDGYSGPAYSDTYSSAGDSVYTYFSAVAGQDGEVDAEELQRCLTQSGINGTYSPFSLETCRIMIAMLDRDHTGKMGFNAFKELWAALNAWKENFMTVDQDGSGTVEHHELRQAIGLMGYRLSPQTLTTIVKRYSKNGRIFFDDYVACCVKLRALTDFFRKRDHLQQGSANFIYDDFLQGTMAI
partner: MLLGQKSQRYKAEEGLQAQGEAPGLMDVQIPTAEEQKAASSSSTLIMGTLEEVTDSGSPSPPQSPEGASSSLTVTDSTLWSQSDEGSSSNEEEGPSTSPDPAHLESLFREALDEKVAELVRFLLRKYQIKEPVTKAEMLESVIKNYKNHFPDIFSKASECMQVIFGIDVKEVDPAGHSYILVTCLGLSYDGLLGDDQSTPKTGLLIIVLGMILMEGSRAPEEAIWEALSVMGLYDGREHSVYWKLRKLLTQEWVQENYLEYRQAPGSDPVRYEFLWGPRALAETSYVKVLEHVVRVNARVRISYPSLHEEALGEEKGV
B3: Germ cell-less protein-like 1 (Homo sapiens), Q96IK5 (parent)
chain: MGSLSSRVLRQPRPALAQQAQGARAGGSARRPDTGDDAAGHGFCYCAGSHKRKRSSGSFCYCHPDSETDEDEEEGDEQQRLLNTPRRKKLKSTSKYIYQTLFLNGENSDIKICALGEEWSLHKIYLCQSGYFSSMFSGSWKESSMNIIELEIPDQNIDVEALQVAFGSLYRDDVLIKPSRVVAILAAACLLQLDGLIQQCGETMKETVNVKTVCGYYTSAGTYGLDSVKKKCLEWLLNNLMTHQNVELFKELSINVMKQLIGSSNLFVMQVEMDIYTALKKWMFLQLVPSWNGSLKQLLTETDVWFSKQRKDFEGMAFLETEQGKPFVSVFRHLRLQYIISDLASARIIEQDAVVPSEWLSSVYKQQWFAMLRAEQDSEVGPQEINKEELEGNSMRCGRKLAKDGEYCWRWTGFNFGFDLLVTYTNRYIIFKRNTLNQPCSGSVSLQPRRSIAFRLRLASFDSSGKLICSRTTGYQILTLEKDQEQVVMNLDSRLLIFPLYICCNFLYISPEKKN
partner: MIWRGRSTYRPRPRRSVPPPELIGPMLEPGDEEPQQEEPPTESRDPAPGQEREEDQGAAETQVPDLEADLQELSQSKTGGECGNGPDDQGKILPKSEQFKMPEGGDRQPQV
B4: Plakophilin-2 (Homo sapiens), Q99959 (parent)
chain: MAAPGAPAEYGYIRTVLGQQILGQLDSSSLALPSEAKLKLAGSSGRGGQTVKSLRIQEQVQQTLARKGRSSVGNGNLHRTSSVPEYVYNLHLVENDFVGGRSPVPKTYDMLKAGTTATYEGRWGRGTAQYSSQKSVEERSLRHPLRRLEISPDSSPERAHYTHSDYQYSQRSQAGHTLHHQESRRAALLVPPRYARSEIVGVSRAGTTSRQRHFDTYHRQYQHGSVSDTVFDSIPANPALLTYPRPGTSRSMGNLLEKENYLTAGLTVGQVRPLVPLQPVTQNRASRSSWHQSSFHSTRTLREAGPSVAVDSSGRRAHLTVGQAAAGGSGNLLTERSTFTDSQLGNADMEMTLERAVSMLEADHMLPSRISAAATFIQHECFQKSEARKRVNQLRGILKLLQLLKVQNEDVQRAVCGALRNLVFEDNDNKLEVAELNGVPRLLQVLKQTRDLETKKQITDHTVNLRSRNGWPGAVAHACNPSTLGGQGGRITRSGVRDQPDQHGLLWNLSSNDKLKNLMITEALLTLTENIIIPFSGWPEGDYPKANGLLDFDIFYNVTGCLRNMSSAGADGRKAMRRCDGLIDSLVHYVRGTIADYQPDDKATENCVCILHNLSYQLEAELPEKYSQNIYIQNRNIQTDNNKSIGCFGSRSRKVKEQYQDVPMPEEKSNPKGVEWLWHSIVIRMYLSLIAKSVRNYTQEASLGALQNLTAGSGPMPTSVAQTVVQKESGLQHTRKMLHVGDPSVKKTAISLLRNLSRNLSLQNEIAKETLPDLVSIIPDTVPSTDLLIETTASACYTLNNIIQNSYQNARDLLNTGGIQKIMAISAGDAYASNKASKAASVLLYSLWAHTELHHAYKKAQFKKTDFVNSRTAKAYHSLKD
B5: Ornithine decarboxylase antizyme 3 (Homo sapiens), Q9UMX2 (parent)
chain: MPCKRCRPSVYSLSYIKRGKTRNYLYPIWSPYAYYLYCYKYRITLREKMLPRCYKSITYKEEEDLTLQPRSCLQCSESLVGLQEGKSTEQGNHDQLKELYSAGNLTVLATDPLLHQDPVQLDFHFRLTSQTSAHWHGLLCDRRLFLDIPYQALDQGNRESLTATLEYVEEKTNVDSVFVNFQNDRNDRGALLRAFSYMGFEVVRPDHPALPPLDNVIFMVYPLERDVGHLPSEPP
partner: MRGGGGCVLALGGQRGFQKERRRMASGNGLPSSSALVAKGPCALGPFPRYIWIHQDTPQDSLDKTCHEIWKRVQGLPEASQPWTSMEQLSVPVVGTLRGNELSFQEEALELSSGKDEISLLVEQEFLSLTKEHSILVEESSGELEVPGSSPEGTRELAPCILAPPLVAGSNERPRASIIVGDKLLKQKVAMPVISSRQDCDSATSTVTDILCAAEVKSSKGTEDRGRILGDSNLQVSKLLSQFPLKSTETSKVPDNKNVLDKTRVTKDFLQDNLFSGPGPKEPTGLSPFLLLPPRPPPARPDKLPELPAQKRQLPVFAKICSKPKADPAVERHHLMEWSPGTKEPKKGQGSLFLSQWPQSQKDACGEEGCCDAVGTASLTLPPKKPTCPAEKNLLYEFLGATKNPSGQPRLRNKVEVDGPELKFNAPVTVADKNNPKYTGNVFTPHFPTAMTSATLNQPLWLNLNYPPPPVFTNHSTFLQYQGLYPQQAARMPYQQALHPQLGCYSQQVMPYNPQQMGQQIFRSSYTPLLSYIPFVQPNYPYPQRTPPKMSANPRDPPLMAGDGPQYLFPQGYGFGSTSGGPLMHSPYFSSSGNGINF
B6: Transcription factor 12 (Homo sapiens), Q99081 (parent)
chain: MNPQQQRMAAIGTDKELSDLLDFSAMFSPPVNSGKTRPTTLGSSQFSGSGIDERGGTTSWGTSGQPSPSYDSSRGFTDSPHYSDHLNDSRLGAHEGLSPTPFMNSNLMGKTSERGSFSLYSRDTGLPGCQSSLLRQDLGLGSPAQLSSSGKPGTAYYSFSATSSRRRPLHDSAALDPLQAKKVRKVPPGLPSSVYAPSPNSDDFNRESPSYPSPKPPTSMFASTFFMQDGTHNSSDLWSSSNGMSQPGFGGILGTSTSHMSQSSSYGNLHSHDRLSYPPHSVSPTDINTSLPPMSSFHRGSTSSSPYVAASHTPPINGSDSILGTRGNAAGSSQTGDALGKALASIYSPDHTSSSFPSNPSTPVGSPSPLTGTSQWPRPGGQAPSSPSYENSLHSLQSRMEDRLDRLDDAIHVLRNHAVGPSTSLPAGHSDIHSLLGPSHNAPIGSLNSNYGGSSLVASSRSASMVGTHREDSVSLNGNHSVLSSTVTTSSTDLNHKTQENYRGGLQSQSGTVVTTEIKTENKEKDENLHEPPSSDDMKSDDESSQKDIKVSSRGRTSSTNEDEDLNPEQKIEREKERRMANNARERLRVRDINEAFKELGRMCQLHLKSEKPQTKLLILHQAVAVILSLEQQVRERNLNPKAACLKRREEEKVSAVSAEPPTTLPGTHPGLSETTNPMGHM
partner: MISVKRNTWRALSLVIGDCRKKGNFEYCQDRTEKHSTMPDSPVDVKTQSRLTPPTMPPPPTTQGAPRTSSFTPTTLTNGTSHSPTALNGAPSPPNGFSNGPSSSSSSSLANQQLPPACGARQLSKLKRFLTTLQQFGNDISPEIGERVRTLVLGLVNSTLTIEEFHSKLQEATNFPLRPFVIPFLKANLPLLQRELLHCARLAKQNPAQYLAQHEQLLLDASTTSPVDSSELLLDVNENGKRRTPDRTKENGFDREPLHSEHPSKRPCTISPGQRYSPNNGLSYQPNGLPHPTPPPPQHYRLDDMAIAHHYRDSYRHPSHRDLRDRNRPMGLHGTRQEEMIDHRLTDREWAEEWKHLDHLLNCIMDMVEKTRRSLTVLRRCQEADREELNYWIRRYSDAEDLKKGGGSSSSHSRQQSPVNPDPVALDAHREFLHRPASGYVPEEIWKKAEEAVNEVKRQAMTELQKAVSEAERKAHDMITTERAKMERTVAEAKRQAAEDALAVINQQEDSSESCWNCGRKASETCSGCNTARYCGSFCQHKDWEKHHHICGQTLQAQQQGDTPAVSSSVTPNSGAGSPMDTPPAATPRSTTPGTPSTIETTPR

Variants of: B1
Conditions: with rnps1_human RNPS1, Q15287

| effect of a mutation on the interaction | Variant |
| --- | --- |
| with no effect | S535N |
| disrupting interaction strength | R605Q |
| with no effect | T654I |
| with no effect | S662A |

Variants of: B2
Conditions: with maga8_human MAGEA8, P43361

| effect of a mutation on the interaction | Variant |
| --- | --- |
| disrupting interaction strength | S80A |
| disrupting interaction strength | K115R |

Variants of: B3
Conditions: with xage3_human XAGE3, Q8WTP9

| effect of a mutation on the interaction | Variant |
| --- | --- |
| with no effect | Y61S |
| with no effect | E77K |
| with no effect | K123R |
| with no effect | I147V |
| with no effect | K281Q |
| with no effect | I340V |
| with no effect | R449Q |
| with no effect | R457H |

Variants of: B4
Conditions: with mtus2_human MTUS2, Q5JR59
mtus2_human MTUS2, Q5JR59, sequence (Q5JR59 whole entry): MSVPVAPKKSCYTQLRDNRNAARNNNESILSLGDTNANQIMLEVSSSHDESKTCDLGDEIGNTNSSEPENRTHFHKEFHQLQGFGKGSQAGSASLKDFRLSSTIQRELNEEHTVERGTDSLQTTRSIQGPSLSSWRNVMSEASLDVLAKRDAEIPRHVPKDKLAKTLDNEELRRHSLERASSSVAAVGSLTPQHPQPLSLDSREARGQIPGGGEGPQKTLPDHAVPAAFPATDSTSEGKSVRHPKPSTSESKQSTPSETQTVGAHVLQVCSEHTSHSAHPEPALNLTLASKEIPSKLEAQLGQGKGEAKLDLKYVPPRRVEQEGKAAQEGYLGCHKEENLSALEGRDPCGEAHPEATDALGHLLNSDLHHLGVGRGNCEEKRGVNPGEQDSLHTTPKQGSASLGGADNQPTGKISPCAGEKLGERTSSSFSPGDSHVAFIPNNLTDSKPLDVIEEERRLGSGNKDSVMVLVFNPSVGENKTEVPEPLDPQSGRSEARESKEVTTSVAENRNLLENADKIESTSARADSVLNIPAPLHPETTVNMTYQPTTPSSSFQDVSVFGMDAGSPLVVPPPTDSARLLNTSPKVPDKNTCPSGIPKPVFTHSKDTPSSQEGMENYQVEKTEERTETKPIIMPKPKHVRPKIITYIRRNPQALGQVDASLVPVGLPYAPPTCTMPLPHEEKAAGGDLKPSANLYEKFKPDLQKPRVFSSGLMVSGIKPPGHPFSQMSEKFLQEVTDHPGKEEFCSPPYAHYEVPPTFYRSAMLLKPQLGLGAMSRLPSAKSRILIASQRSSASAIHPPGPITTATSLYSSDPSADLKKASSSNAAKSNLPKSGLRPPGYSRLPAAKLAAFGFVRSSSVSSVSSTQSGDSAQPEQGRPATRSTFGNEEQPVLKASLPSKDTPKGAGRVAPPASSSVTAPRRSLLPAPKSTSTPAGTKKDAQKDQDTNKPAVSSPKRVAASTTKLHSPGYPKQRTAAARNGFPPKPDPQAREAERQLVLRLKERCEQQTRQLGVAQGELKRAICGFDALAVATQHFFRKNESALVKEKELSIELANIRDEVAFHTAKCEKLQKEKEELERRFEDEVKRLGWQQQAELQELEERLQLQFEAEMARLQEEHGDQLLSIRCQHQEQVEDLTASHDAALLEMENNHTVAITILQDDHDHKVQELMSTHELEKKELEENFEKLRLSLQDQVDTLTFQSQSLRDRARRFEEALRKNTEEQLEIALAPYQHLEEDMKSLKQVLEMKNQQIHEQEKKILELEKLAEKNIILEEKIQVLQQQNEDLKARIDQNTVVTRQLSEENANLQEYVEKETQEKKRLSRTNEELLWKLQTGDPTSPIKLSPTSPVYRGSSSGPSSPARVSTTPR

| effect of a mutation on the interaction | Variant |
| --- | --- |
| with no effect | E58D |
| with no effect | A264V |
| with no effect | L366P |

Variants of: B5
Conditions: with ca094_human C1orf94, Q6P1W5

| effect of a mutation on the interaction | Variant |
| --- | --- |
| disrupting interaction strength | V174A |
| with no effect | R193Q |

Variants of: B6
Conditions: with mtg8_human RUNX1T1, Q06455

| effect of a mutation on the interaction | Variant |
| --- | --- |
| with no effect | V31A |
| with no effect | L483R |
| with no effect | N479S |
